Consider 94 variants from the supplement of paper PMC10567573.

B1: TEKT4 (parent)
chain: LREKLLEAEQSLRNLEDIHMSLEK
B2: BTBD1 (parent)
chain: YGSIHGPTDYQVNIQIIEYEKKQT
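Also: lentivirally expressed fusions sorted by FACS into six bins by GFP to DsRed ratio, PSI derived from sequencing read proportions per bin multiplied by bin number.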

The variants in the first series derive from B1. Kind of series: protein stability index of a GFP-peptide fusion (GPS, HEK-293T) (PSI 1-6); higher = more stable. To be noted: c terminus: a fixed tail appended.
For the variant DREKLLEAEQSLRNLEDIHMSLEK [L1D], the protein stability index turned out to be 5.15.

On to YREKLLEAEQSLRNLEDIHMSLEK [L1Y], for which the protein stability index was 2.61.

AREKLLEAEQSLRNLEDIHMSLEK [L1A]: the protein stability index amounted to 3.67.

In the case of QREKLLEAEQSLRNLEDIHMSLEK [L1Q], the protein stability index stood at 4.67.

For the variant RREKLLEAEQSLRNLEDIHMSLEK [L1R], the protein stability index stood at 3.52.

For PREKLLEAEQSLRNLEDIHMSLEK [L1P], the protein stability index came to 4.12.

Consider EREKLLEAEQSLRNLEDIHMSLEK [L1E], for which the protein stability index came to 5.12.

As for TREKLLEAEQSLRNLEDIHMSLEK [L1T], the protein stability index turned out to be 4.24.

For the variant CREKLLEAEQSLRNLEDIHMSLEK [L1C], the protein stability index was determined as 3.07.

Turning to FREKLLEAEQSLRNLEDIHMSLEK [L1F], the protein stability index worked out at 1.74.

Turning to VREKLLEAEQSLRNLEDIHMSLEK [L1V], the protein stability index amounted to 1.98.

Turning to NREKLLEAEQSLRNLEDIHMSLEK [L1N], the protein stability index is 4.65.

As for WREKLLEAEQSLRNLEDIHMSLEK [L1W], the protein stability index was 1.92.

For GREKLLEAEQSLRNLEDIHMSLEK [L1G], the protein stability index amounted to 4.38.

Turning to IREKLLEAEQSLRNLEDIHMSLEK [L1I], the protein stability index stood at 1.82.

Take SREKLLEAEQSLRNLEDIHMSLEK [L1S]: the protein stability index was 4.82.

As for LREKLLQAEQSLRNLEDIHMSLEK [E7Q], the protein stability index turned out to be 2.35.

For LREKLLFAEQSLRNLEDIHMSLEK [E7F], the protein stability index is 2.5.

In the case of LREKLLSAEQSLRNLEDIHMSLEK [E7S], the protein stability index was found to be 2.42.

Consider LREKLLDAEQSLRNLEDIHMSLEK [E7D], for which the protein stability index was found to be 2.38.

LREKLLCAEQSLRNLEDIHMSLEK [E7C]: the protein stability index came out at 2.17.

As to LREKLLVAEQSLRNLEDIHMSLEK [E7V], the protein stability index was determined as 2.56.

LREKLLGAEQSLRNLEDIHMSLEK [E7G]: the protein stability index came to 3.75.

As for LREKLLLAEQSLRNLEDIHMSLEK [E7L], the protein stability index is 1.75.

LREKLLWAEQSLRNLEDIHMSLEK [E7W]: the protein stability index came to 1.75.

Consider LREKLLKAEQSLRNLEDIHMSLEK [E7K], for which the protein stability index was determined as 2.51.

For LREKLLIAEQSLRNLEDIHMSLEK [E7I], the protein stability index was found to be 2.06.

On to LREKLLYAEQSLRNLEDIHMSLEK [E7Y], for which the protein stability index was 2.08.

As to LREKLLPAEQSLRNLEDIHMSLEK [E7P], the protein stability index is 4.17.

LREKLLAAEQSLRNLEDIHMSLEK [E7A]: the protein stability index turned out to be 2.46.

On to LREKLLMAEQSLRNLEDIHMSLEK [E7M], for which the protein stability index amounted to 2.38.

Take LREKLLHAEQSLRNLEDIHMSLEK [E7H]: the protein stability index is 3.6.

Regarding LREKLLNAEQSLRNLEDIHMSLEK [E7N], the protein stability index worked out at 2.39.

Take LREKLLTAEQSLRNLEDIHMSLEK [E7T]: the protein stability index worked out at 2.93.

As to LREKYLEAEQSLRNLEDIHMSLEK [L5Y], the protein stability index is 3.86.

For the variant LREKELEAEQSLRNLEDIHMSLEK [L5E], the protein stability index stood at 5.05.

As for LREKRLEAEQSLRNLEDIHMSLEK [L5R], the protein stability index was found to be 4.49.

As for LREKHLEAEQSLRNLEDIHMSLEK [L5H], the protein stability index stood at 4.08.

Consider LREKILEAEQSLRNLEDIHMSLEK [L5I], for which the protein stability index was 2.72.

As to LREKCLEAEQSLRNLEDIHMSLEK [L5C], the protein stability index is 2.44.

For the variant LREKALEAEQSLRNLEDIHMSLEK [L5A], the protein stability index was 4.49.

Consider LREKDLEAEQSLRNLEDIHMSLEK [L5D], for which the protein stability index came to 5.1.

In the case of LREKMLEAEQSLRNLEDIHMSLEK [L5M], the protein stability index was 3.2.

For the variant LREKNLEAEQSLRNLEDIHMSLEK [L5N], the protein stability index was determined as 5.13.

Turning to LREKFLEAEQSLRNLEDIHMSLEK [L5F], the protein stability index amounted to 3.27.

Regarding LREKTLEAEQSLRNLEDIHMSLEK [L5T], the protein stability index came out at 4.67.

As for LREKVLEAEQSLRNLEDIHMSLEK [L5V], the protein stability index amounted to 2.66.

Turning to LREKWLEAEQSLRNLEDIHMSLEK [L5W], the protein stability index was 4.04.

For LREKSLEAEQSLRNLEDIHMSLEK [L5S], the protein stability index is 4.68.

Take LREKPLEAEQSLRNLEDIHMSLEK [L5P]: the protein stability index stood at 4.75.

Turning to LREKGLEAEQSLRNLEDIHMSLEK [L5G], the protein stability index came to 4.83.

With LREKQLEAEQSLRNLEDIHMSLEK [L5Q], the protein stability index is 5.21.

Consider LREKKLEAEQSLRNLEDIHMSLEK [L5K], for which the protein stability index is 4.93.

Variants of B2 are the subject of the next series. The series is described as above. To be noted: c terminus: a fixed tail appended.
In the case of YGQIHGPTDYQVNIQIIEYEKKQT [S3Q], the protein stability index amounted to 3.33.

In the case of YGSIHHPTDYQVNIQIIEYEKKQT [G6H], the protein stability index is 3.

YGSIHGPTDYQVNIQIIEYEKGQT [K22G]: the protein stability index worked out at 2.24.

In the case of YGSIHGPTDYQVNIQIIEYEKCQT [K22C], the protein stability index was found to be 1.52.

In the case of YGSIHGPTDYQVNIQIIEYEKSQT [K22S], the protein stability index is 1.78.

YGSIHGITDYQVNIQIIEYEKKQT [P7I]: the protein stability index was found to be 2.44.

With YGSIHGPTDYQVNIQIIEYEKKQL [T24L], the protein stability index came to 2.03.

For YGSIHGPTDYQVNIQIIEYEKKQG [T24G], the protein stability index stood at 2.57.

Consider YGSIHGPTDYQVNIQIIEYEKKQK [T24K], for which the protein stability index came to 3.05.

In the case of YGSIHGPTDYQVNIQIIEYEKKGT [Q23G], the protein stability index stood at 2.76.

Turning to YGSKHGPTDYQVNIQIIEYEKKQT [I4K], the protein stability index turned out to be 2.24.

Consider YGSIHGPTDYPVNIQIIEYEKKQT [Q11P], for which the protein stability index is 3.5.

In the case of YGSIHGPTDYQVNIQTIEYEKKQT [I16T], the protein stability index turned out to be 3.58.

As to YGSIHGPTDYQVNIVIIEYEKKQT [Q15V], the protein stability index is 1.6.

Regarding YGSIHGPTDYQVNICIIEYEKKQT [Q15C], the protein stability index came out at 1.43.

With YGSIHGPTDYQVNIGIIEYEKKQT [Q15G], the protein stability index is 2.47.

For the variant LGSIHGPTDYQVNIQIIEYEKKQT [Y1L], the protein stability index worked out at 2.94.

As to EGSIHGPTDYQVNIQIIEYEKKQT [Y1E], the protein stability index came out at 3.93.

On to IGSIHGPTDYQVNIQIIEYEKKQT [Y1I], for which the protein stability index worked out at 2.92.

KGSIHGPTDYQVNIQIIEYEKKQT [Y1K]: the protein stability index came out at 3.15.

With YGSIHGPTDYQVNGQIIEYEKKQT [I14G], the protein stability index worked out at 3.32.

YGSIHGPTDYQVNEQIIEYEKKQT [I14E]: the protein stability index turned out to be 3.46.

YGSIHGPDDYQVNIQIIEYEKKQT [T8D]: the protein stability index came out at 3.66.

As for YGSIHGPTDYQVNIQIIETEKKQT [Y19T], the protein stability index was determined as 2.92.

As to YGSIHGPTDYQVNIQIIEGEKKQT [Y19G], the protein stability index was 3.36.

With YGSIHGPTDYQVNIQIIEPEKKQT [Y19P], the protein stability index came out at 3.67.

As for YGSIHGPTDYQVNIQIIENEKKQT [Y19N], the protein stability index came out at 3.29.

On to YGSIHGPTDYQVNIQIIEDEKKQT [Y19D], for which the protein stability index came out at 3.76.

In the case of YGSIHGPTDYQVNIQIIDYEKKQT [E18D], the protein stability index was 2.64.

Turning to YGSIHGPTDYQVNIQIIVYEKKQT [E18V], the protein stability index is 3.19.

Consider YGSIHGPTDYQVNIQIIKYEKKQT [E18K], for which the protein stability index amounted to 2.61.

Turning to YGSIHGPTDEQVNIQIIEYEKKQT [Y10E], the protein stability index was 4.55.

Take YGSIHGPTDLQVNIQIIEYEKKQT [Y10L]: the protein stability index was 2.87.

For YGSIHGPTDWQVNIQIIEYEKKQT [Y10W], the protein stability index is 2.05.

YGSIHGPTDRQVNIQIIEYEKKQT [Y10R]: the protein stability index is 4.12.

For YGSIHGPTDYQVGIQIIEYEKKQT [N13G], the protein stability index came out at 3.34.

Turning to YGSIHGPTMYQVNIQIIEYEKKQT [D9M], the protein stability index was determined as 2.23.

For the variant YGSIHGPTGYQVNIQIIEYEKKQT [D9G], the protein stability index came to 1.75.

As to YGSIHGPTIYQVNIQIIEYEKKQT [D9I], the protein stability index was 4.42.

As for YGSIHGPTDYQVNIQIIEYEQKQT [K21Q], the protein stability index was determined as 2.52.

Consider YGSIHGPTDYQRNIQIIEYEKKQT [V12R], for which the protein stability index was found to be 3.66.
